Measured values from patent US5019384A, “Immunonodulating compositions and their use” (Massachusetts Institute of Technology, priority 1989, dated 1991).
Where a chain is given by its changes, count along the chain named. Entries after “also recorded” stand apart in the source; their conditions may differ.

Columns and labels:
[1] = target: T1, I-E^k (Mus musculus, UniProt P04224+P04230); test: Gel filtration binding of 125I-labeled peptide to purified Ia (I-E^k)
T1 sequence (P04224 26-255): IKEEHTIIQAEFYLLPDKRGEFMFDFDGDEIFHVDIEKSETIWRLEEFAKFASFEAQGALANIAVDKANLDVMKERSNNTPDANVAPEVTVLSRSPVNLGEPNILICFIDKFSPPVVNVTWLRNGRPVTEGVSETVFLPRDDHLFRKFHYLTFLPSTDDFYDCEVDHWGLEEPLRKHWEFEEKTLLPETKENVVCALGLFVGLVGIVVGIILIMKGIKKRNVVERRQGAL
T1 sequence (P04230 27-264): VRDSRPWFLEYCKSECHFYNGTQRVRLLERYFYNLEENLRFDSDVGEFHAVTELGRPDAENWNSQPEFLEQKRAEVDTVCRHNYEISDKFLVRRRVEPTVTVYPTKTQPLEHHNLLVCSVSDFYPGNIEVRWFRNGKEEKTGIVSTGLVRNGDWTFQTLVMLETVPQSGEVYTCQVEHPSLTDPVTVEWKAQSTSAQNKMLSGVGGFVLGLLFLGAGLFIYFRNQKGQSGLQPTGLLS
From the text: (§1) The peptide P12-26 was modified by the addition of a tyrosine residue to the N-terminus to serve as an acceptor for the ^125 I.
(§2) Ia-molecules were purifed from Nonidet P-40 (NP-40) lysates of A20 (H2^d) or AKTB-1b (H2^k) cells by affinity chromatography using the following monoclonal antibodies: MK-D6 (I-A^d -specific), 10-3-6 (I-A^k -specific) specific) or 14-4-4 (I-E^d/k -specific) coupled to Sepharose 4B beads (Pharmacia Fine Chemicals, Sweden).
(§3) A gel filtration assay was used for determining the degree of association between immunogenic peptides and Ia. The assay is described in: Buus, S. et al., Proceeding of the National Academy of Sciences, U.S.A. (1986) 83:3968, the teaching of which is incorporated herein by reference. Briefly, 40 μmole of purified Ia in 1 percent NP-40/PBS was mixed with 0.2 μmole of ^125 I-labeled peptide (approximately 200,000 cpm for each experiment) and incubated for 48 hours at room temperature to allow for formation of the Ia-peptide complex. The Ia-peptide complexes were separated from free peptide by gel filtration and the percentage of peptide bound to Ia was calculated as the ratio of the ^125 I-labeled peptide in the void volume to the total ^125 I-labeled peptide recovered.

[2] = target: T2, I-E^d (Mus musculus, UniProt P01904+P01915); test: Gel filtration binding of 125I-labeled peptide to purified Ia (I-E^d)
T2 construct: endogenous in cells
T2 sequence (P01904 26-255): T1 sequence (P04224 26-255) with H177T, V194M
T2 sequence (P01915 27-264 limits assumed): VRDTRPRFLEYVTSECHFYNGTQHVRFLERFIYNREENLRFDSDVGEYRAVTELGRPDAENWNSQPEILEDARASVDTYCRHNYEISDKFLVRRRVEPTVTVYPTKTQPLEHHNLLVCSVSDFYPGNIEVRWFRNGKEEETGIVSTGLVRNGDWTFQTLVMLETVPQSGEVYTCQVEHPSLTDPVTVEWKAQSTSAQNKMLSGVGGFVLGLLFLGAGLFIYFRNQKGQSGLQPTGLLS
From the text: as §1, §2, §3

[3] = target: T3, I-A^k (Mus musculus, UniProt P01910+P06343); test: Inhibition of binding of 125I-labeled Lysozyme (Hen) (P46-61) to I-A^k; settings: for Competition with the lysozyme-derived peptide for binding to I-A^k (in words): up to 2500 μM
T3 construct: endogenous in cells
From the text: as §2, §3
For the inhibition assay a dose-range of unlabeled cI P12-26 peptide was added to the incubation mixture of Ia and ^125 I-labeled peptide ([…] μM). The degree of association between Ia and labeled peptide was determined by gel filtration as described in Table 1. The percentage of peptide bound in the absence of inhibitors is 10.6 percent for ovalbumin (323 to 339)/I-A^d; 6.5 percent for myoglobulin 132 to 153)/I-E^d; 21.5 percent for lysozyme (46 to 61)/I-A^k; 2.5 percent for cytochrome C (88 to 104)/I-E^k. The concentration of inhibitory peptide required to obtain a 50 percent inhibition of binding was calculated. Each experiment was repeated three times.

[4] = target: T2, I-E^d; test: Inhibition of binding of 125I-labeled Myoglobin (P132-153) to I-E^d; settings: 125I Myoglobin (P132-153) bound to I-E^d; read-out: Concentration (μM) of P12-26 Required for 50 percent Inhibition
From the text: as §2
as §3, with “Briefly, 40 μmole of purified Ia in 1 percent NP-40/PBS was mixed with 0.2 μmole of ^125 I-labeled peptide (approximately 200,000 cpm for each experiment) and incubated for 48 hours at room temperature to allow for formation of the Ia-peptide complex.” left out
(§4) For the inhibition assay a dose-range of unlabeled cI P12-26 peptide was added to the incubation mixture of Ia and ^125 I-labeled peptide (600, 120, 24, ad 48 μM). The degree of association between Ia and labeled peptide was determined by gel filtration as described in Table 1. […] The concentration of inhibitory peptide required to obtain a 50 percent inhibition of binding was calculated. […]

[5] = target: T4, I-A^d (Mus musculus, UniProt P01921+P04228); test: Gel filtration binding of 125I-labeled peptide to purified Ia (I-A^d)
T4 construct: endogenous in cells
T4 sequence (P04228 24-256): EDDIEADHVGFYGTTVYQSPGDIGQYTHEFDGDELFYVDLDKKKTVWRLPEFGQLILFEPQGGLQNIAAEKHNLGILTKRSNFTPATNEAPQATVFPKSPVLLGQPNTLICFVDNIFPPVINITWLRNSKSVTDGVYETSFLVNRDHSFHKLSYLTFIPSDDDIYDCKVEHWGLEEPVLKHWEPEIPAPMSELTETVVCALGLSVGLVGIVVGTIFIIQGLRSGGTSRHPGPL
T4 sequence (P01921 28-265): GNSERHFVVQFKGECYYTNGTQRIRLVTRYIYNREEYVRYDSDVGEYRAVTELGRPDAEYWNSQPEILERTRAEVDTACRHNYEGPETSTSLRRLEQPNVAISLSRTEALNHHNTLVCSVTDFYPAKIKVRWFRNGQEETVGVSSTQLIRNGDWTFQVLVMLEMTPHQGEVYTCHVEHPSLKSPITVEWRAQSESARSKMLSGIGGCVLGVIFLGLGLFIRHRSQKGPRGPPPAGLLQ
From the text: as §1, §2, §3

[6] = target: T1, I-E^k; test: Inhibition of binding of 125I-labeled Cytochrome c (pigeon) (P88-104) to I-E^k; settings: 125I Cytochrome c (pigeon) (P88-104) bound to I-E^k; read-out: Concentration (μM) of P12-26 Required for 50 percent Inhibition
From the text: as §2
as §3, with “Briefly, 40 μmole of purified Ia in 1 percent NP-40/PBS was mixed with 0.2 μmole of ^125 I-labeled peptide (approximately 200,000 cpm for each experiment) and incubated for 48 hours at room temperature to allow for formation of the Ia-peptide complex.” left out
as §4

[7] = target: T3, I-A^k; test: Gel filtration binding of 125I-labeled peptide to purified Ia (I-A^k)
From the text: as §1, §2, §3

[8] = system: monoclonal antibody specific for (NANP)50; test: Inhibition of binding of monoclonal antibody specific for (NANP)50 to (NANP)50; design: species or system mice; settings: radiolabelled (NANP)50 bound to microwells
From the text: The above study was repeated except the antigen was radiolabelled (NANP)50 which was bound to microwells.

[9] = system: T-cell hybridoma DO-11.10; assay type: cell-based

For “P12-26: derived from the cI protein of bacteriophage lambda (residues 12-26)”, the “Binding to the I-E^k molecule (in words)” value [1] was “able to bind to both molecules as expected”, the “Binding to the I-E^d molecule (in words)” value [2] was “binds most tightly; also recorded: binds best; also recorded: binds exceedingly well” and the IC50 ([3]; 125I Lysozyme (Hen) (P46-61) bound to I-A^k, read-out: Concentration (μM) of P12-26 Required for 50 percent Inhibition) was > 2500 µM. For the same substance, the “Competition with the lysozyme-derived peptide for binding to I-A^k (in words)” value [3] was “is not observed”, the “Competition with the lysozyme-derived peptide for binding to I-A^k (in words)” value ([3]; listed as P1226) was “No inhibition of binding was detected” and the IC50 [4] was 4 µM. For the same substance, the “Binding to the I-A^d molecule (in words)” value [5] was “able to bind to both molecules as expected”, the IC50 [6] was 300 µM and the “Binding to the I-A^k molecule (in words)” value [7] was “not bound; also recorded: inability of P12-26 to bind”. For the same substance, the “Inhibition of binding of monoclonal antibody specific for (NANP)50” value [8] was “did not inhibit binding”, the “Stimulation of DO-11.10” value [9] was “Neither of these peptides can stimulate DO-11.10 on its own” and the “Inhibition of ovalbumin-specific T-cell activation (DO-11.10)” value ([9]; Ova (P324-336) as stimulator, A20 presenting cells, peptide at 50 μM, 24 hrs) was “act as inhibitors”.
